Experimental findings from patent US20260001928A1 (CORTERIA PHARMACEUTICALS, priority 2022, published 2026) are described below.

The target of experiment [1] is human corticotropin-releasing factor 2a (CRF2a receptor) (human), Q13324. As to the kind of experiment: cell-based or functional assay.
In the next experiment the target is T1, CRF1R receptor (UniProt P34998 24-415, limits assumed).
T1 sequence (looked up): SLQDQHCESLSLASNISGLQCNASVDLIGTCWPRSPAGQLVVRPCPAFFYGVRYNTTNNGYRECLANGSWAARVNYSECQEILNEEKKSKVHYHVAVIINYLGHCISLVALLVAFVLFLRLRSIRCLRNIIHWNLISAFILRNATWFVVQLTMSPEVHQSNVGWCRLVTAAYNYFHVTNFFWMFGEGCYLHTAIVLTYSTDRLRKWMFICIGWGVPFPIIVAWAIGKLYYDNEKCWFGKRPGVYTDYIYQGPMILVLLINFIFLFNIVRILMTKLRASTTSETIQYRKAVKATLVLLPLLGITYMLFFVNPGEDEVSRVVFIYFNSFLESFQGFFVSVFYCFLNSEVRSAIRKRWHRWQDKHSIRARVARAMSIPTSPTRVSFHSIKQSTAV
As to the kind of experiment: cell-based or functional assay.

*1 amine or outer side, *2 acyl side, *3 side chain or, on linkers, in order; H or OH if unused. Where no end group is shown, it is not given here. Side-chain parts run from the residue outwards. [ ]: non-standard residue; d: D form. The star is where a group is joined. C16 diacid = O=C(O)CCCCCCCCCCCCCCC(=O)*; γGlu = O=C(O)[C@H](CCC(=O)[*:2])N[*:1]; NMeI = CC[C@H](C)[C@H](NC)C(=O)O; Decanoyl = CCCCCCCCCC(=O)*; Api = NC1(C(=O)O)CCNCC1; Hexanoyl = CCCCCC(=O)*; Aib = CC(C)(N)C(=O)O

Sequence of human corticotropin-releasing factor 2a (CRF2a receptor) (human), Q13324 (Q13324 20-411): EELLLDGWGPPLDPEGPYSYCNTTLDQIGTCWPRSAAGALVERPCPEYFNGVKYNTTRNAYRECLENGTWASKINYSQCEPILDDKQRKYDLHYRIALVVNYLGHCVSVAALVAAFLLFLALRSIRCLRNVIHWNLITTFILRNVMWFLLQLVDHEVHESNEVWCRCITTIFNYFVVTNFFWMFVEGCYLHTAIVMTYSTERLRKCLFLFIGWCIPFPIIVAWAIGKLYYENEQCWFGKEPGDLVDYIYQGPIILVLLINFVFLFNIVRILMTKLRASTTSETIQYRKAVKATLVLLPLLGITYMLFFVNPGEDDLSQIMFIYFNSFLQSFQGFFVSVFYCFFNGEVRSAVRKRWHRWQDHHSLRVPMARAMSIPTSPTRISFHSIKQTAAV

B1: SEQ ID NO 155 (peptide)
peptide: [NMeI]VLSLD[dV]PIKLK([γGlu-C16 diacid])KILLEQEKQK[Aib]QREQAETN[Api]QILAQV-NH2
modifications: N-terminus assumed
SMILES: CC[C@H](C)[C@H](NC)C(=O)N[C@H](C(=O)N[C@@H](CC(C)C)C(=O)N[C@@H](CO)C(=O)N[C@@H](CC(C)C)C(=O)N[C@@H](CC(=O)O)C(=O)N[C@@H](C(=O)N1CCC[C@H]1C(=O)N[C@H](C(=O)N[C@@H](CCCCN)C(=O)N[C@@H](CC(C)C)C(=O)N[C@@H](CCCCNC(=O)CC[C@H](NC(=O)CCCCCCCCCCCCCCC(=O)O)C(=O)O)C(=O)N[C@@H](CCCCN)C(=O)N[C@H](C(=O)N[C@@H](CC(C)C)C(=O)N[C@@H](CC(C)C)C(=O)N[C@@H](CCC(=O)O)C(=O)N[C@@H](CCC(N)=O)C(=O)N[C@@H](CCC(=O)O)C(=O)N[C@@H](CCCCN)C(=O)N[C@@H](CCC(N)=O)C(=O)N[C@@H](CCCCN)C(=O)NC(C)(C)C(=O)N[C@@H](CCC(N)=O)C(=O)N[C@@H](CCCNC(=N)N)C(=O)N[C@@H](CCC(=O)O)C(=O)N[C@@H](CCC(N)=O)C(=O)N[C@@H](C)C(=O)N[C@@H](CCC(=O)O)C(=O)N[C@H](C(=O)N[C@@H](CC(N)=O)C(=O)NC1(C(=O)N[C@@H](CCC(N)=O)C(=O)N[C@H](C(=O)N[C@@H](CC(C)C)C(=O)N[C@@H](C)C(=O)N[C@@H](CCC(N)=O)C(=O)N[C@H](C(N)=O)C(C)C)[C@@H](C)CC)CCNCC1)[C@@H](C)O)[C@@H](C)CC)[C@@H](C)CC)C(C)C)C(C)C
In experiment [1], B1 yielded an EC50 [nM] (cAMP) of 0.51 nM. Also, in the experiment with CRF1R receptor, the “Emax (% I)” value is 26%.

B2: SEQ ID NO 157 (peptide)
peptide: Hexanoyl-VLSLD[dV]PIKLK([γGlu-C16 diacid])KILLEQEKQKKQREQAETN[Api]QILAQV-NH2
SMILES: CCCCCC(=O)N[C@H](C(=O)N[C@@H](CC(C)C)C(=O)N[C@@H](CO)C(=O)N[C@@H](CC(C)C)C(=O)N[C@@H](CC(=O)O)C(=O)N[C@@H](C(=O)N1CCC[C@H]1C(=O)N[C@H](C(=O)N[C@@H](CCCCN)C(=O)N[C@@H](CC(C)C)C(=O)N[C@@H](CCCCNC(=O)CC[C@H](NC(=O)CCCCCCCCCCCCCCC(=O)O)C(=O)O)C(=O)N[C@@H](CCCCN)C(=O)N[C@H](C(=O)N[C@@H](CC(C)C)C(=O)N[C@@H](CC(C)C)C(=O)N[C@@H](CCC(=O)O)C(=O)N[C@@H](CCC(N)=O)C(=O)N[C@@H](CCC(=O)O)C(=O)N[C@@H](CCCCN)C(=O)N[C@@H](CCC(N)=O)C(=O)N[C@@H](CCCCN)C(=O)N[C@@H](CCCCN)C(=O)N[C@@H](CCC(N)=O)C(=O)N[C@@H](CCCNC(=N)N)C(=O)N[C@@H](CCC(=O)O)C(=O)N[C@@H](CCC(N)=O)C(=O)N[C@@H](C)C(=O)N[C@@H](CCC(=O)O)C(=O)N[C@H](C(=O)N[C@@H](CC(N)=O)C(=O)NC1(C(=O)N[C@@H](CCC(N)=O)C(=O)N[C@H](C(=O)N[C@@H](CC(C)C)C(=O)N[C@@H](C)C(=O)N[C@@H](CCC(N)=O)C(=O)N[C@H](C(N)=O)C(C)C)[C@@H](C)CC)CCNCC1)[C@@H](C)O)[C@@H](C)CC)[C@@H](C)CC)C(C)C)C(C)C
In the case of B2, the EC50 [nM] (cAMP) in experiment [1] was 0.32 nM. In addition, the “Emax (% I)” value with CRF1R receptor came out at 30%.

Molecule VLSLD[dV]PIKLK([γGlu-C16 diacid])QILLKQERQKKQREQAEKNKQILEQV-NH2 [SEQ ID NO 4] returned an EC50 [nM] (cAMP) in experiment [1] of 0.44 nM. Besides, in the experiment with CRF1R receptor, the “EC50” value is greater than 250 nM and the “Emax (% I)” value turned out to be 4%.

B3: SEQ ID NO 153 (peptide)
peptide: Ac-IVLSLD[dV]PIKLK([γGlu-C16 diacid])KILLEQEKQK[Aib]QREQAETN[Api]QILAQV-NH2
SMILES: CC[C@H](C)[C@H](NC(C)=O)C(=O)N[C@H](C(=O)N[C@@H](CC(C)C)C(=O)N[C@@H](CO)C(=O)N[C@@H](CC(C)C)C(=O)N[C@@H](CC(=O)O)C(=O)N[C@@H](C(=O)N1CCC[C@H]1C(=O)N[C@H](C(=O)N[C@@H](CCCCN)C(=O)N[C@@H](CC(C)C)C(=O)N[C@@H](CCCCNC(=O)CC[C@H](NC(=O)CCCCCCCCCCCCCCC(=O)O)C(=O)O)C(=O)N[C@@H](CCCCN)C(=O)N[C@H](C(=O)N[C@@H](CC(C)C)C(=O)N[C@@H](CC(C)C)C(=O)N[C@@H](CCC(=O)O)C(=O)N[C@@H](CCC(N)=O)C(=O)N[C@@H](CCC(=O)O)C(=O)N[C@@H](CCCCN)C(=O)N[C@@H](CCC(N)=O)C(=O)N[C@@H](CCCCN)C(=O)NC(C)(C)C(=O)N[C@@H](CCC(N)=O)C(=O)N[C@@H](CCCNC(=N)N)C(=O)N[C@@H](CCC(=O)O)C(=O)N[C@@H](CCC(N)=O)C(=O)N[C@@H](C)C(=O)N[C@@H](CCC(=O)O)C(=O)N[C@H](C(=O)N[C@@H](CC(N)=O)C(=O)NC1(C(=O)N[C@@H](CCC(N)=O)C(=O)N[C@H](C(=O)N[C@@H](CC(C)C)C(=O)N[C@@H](C)C(=O)N[C@@H](CCC(N)=O)C(=O)N[C@H](C(N)=O)C(C)C)[C@@H](C)CC)CCNCC1)[C@@H](C)O)[C@@H](C)CC)[C@@H](C)CC)C(C)C)C(C)C
B3 returned an EC50 [nM] (cAMP) in experiment [1] of 0.41 nM. Besides, the “Emax (% I)” value in the experiment with CRF1R receptor is 22%.

B4: SEQ ID NO 158 (peptide)
peptide: Decanoyl-VLSLD[dV]PIKLK([γGlu-C16 diacid])KILLEQEKQKKQREQAETN[Aib]QILAQV-NH2
SMILES: CCCCCCCCCC(=O)N[C@H](C(=O)N[C@@H](CC(C)C)C(=O)N[C@@H](CO)C(=O)N[C@@H](CC(C)C)C(=O)N[C@@H](CC(=O)O)C(=O)N[C@@H](C(=O)N1CCC[C@H]1C(=O)N[C@H](C(=O)N[C@@H](CCCCN)C(=O)N[C@@H](CC(C)C)C(=O)N[C@@H](CCCCNC(=O)CC[C@H](NC(=O)CCCCCCCCCCCCCCC(=O)O)C(=O)O)C(=O)N[C@@H](CCCCN)C(=O)N[C@H](C(=O)N[C@@H](CC(C)C)C(=O)N[C@@H](CC(C)C)C(=O)N[C@@H](CCC(=O)O)C(=O)N[C@@H](CCC(N)=O)C(=O)N[C@@H](CCC(=O)O)C(=O)N[C@@H](CCCCN)C(=O)N[C@@H](CCC(N)=O)C(=O)N[C@@H](CCCCN)C(=O)N[C@@H](CCCCN)C(=O)N[C@@H](CCC(N)=O)C(=O)N[C@@H](CCCNC(=N)N)C(=O)N[C@@H](CCC(=O)O)C(=O)N[C@@H](CCC(N)=O)C(=O)N[C@@H](C)C(=O)N[C@@H](CCC(=O)O)C(=O)N[C@H](C(=O)N[C@@H](CC(N)=O)C(=O)NC(C)(C)C(=O)N[C@@H](CCC(N)=O)C(=O)N[C@H](C(=O)N[C@@H](CC(C)C)C(=O)N[C@@H](C)C(=O)N[C@@H](CCC(N)=O)C(=O)N[C@H](C(N)=O)C(C)C)[C@@H](C)CC)[C@@H](C)O)[C@@H](C)CC)[C@@H](C)CC)C(C)C)C(C)C
Regarding B4, in experiment [1], the EC50 [nM] (cAMP) was 0.04 nM. Further, in the experiment with CRF1R receptor, the “EC50” value was found to be 98.7 nM and the “Emax (% I)” value came out at 54%.

B5: SEQ ID NO 156 (peptide)
peptide: Hexanoyl-VLSLD[dV]PIKLK([γGlu-C16 diacid])KILLEQEKQKKQREQAETN[Aib]QILAQV-NH2
SMILES: CCCCCC(=O)N[C@H](C(=O)N[C@@H](CC(C)C)C(=O)N[C@@H](CO)C(=O)N[C@@H](CC(C)C)C(=O)N[C@@H](CC(=O)O)C(=O)N[C@@H](C(=O)N1CCC[C@H]1C(=O)N[C@H](C(=O)N[C@@H](CCCCN)C(=O)N[C@@H](CC(C)C)C(=O)N[C@@H](CCCCNC(=O)CC[C@H](NC(=O)CCCCCCCCCCCCCCC(=O)O)C(=O)O)C(=O)N[C@@H](CCCCN)C(=O)N[C@H](C(=O)N[C@@H](CC(C)C)C(=O)N[C@@H](CC(C)C)C(=O)N[C@@H](CCC(=O)O)C(=O)N[C@@H](CCC(N)=O)C(=O)N[C@@H](CCC(=O)O)C(=O)N[C@@H](CCCCN)C(=O)N[C@@H](CCC(N)=O)C(=O)N[C@@H](CCCCN)C(=O)N[C@@H](CCCCN)C(=O)N[C@@H](CCC(N)=O)C(=O)N[C@@H](CCCNC(=N)N)C(=O)N[C@@H](CCC(=O)O)C(=O)N[C@@H](CCC(N)=O)C(=O)N[C@@H](C)C(=O)N[C@@H](CCC(=O)O)C(=O)N[C@H](C(=O)N[C@@H](CC(N)=O)C(=O)NC(C)(C)C(=O)N[C@@H](CCC(N)=O)C(=O)N[C@H](C(=O)N[C@@H](CC(C)C)C(=O)N[C@@H](C)C(=O)N[C@@H](CCC(N)=O)C(=O)N[C@H](C(N)=O)C(C)C)[C@@H](C)CC)[C@@H](C)O)[C@@H](C)CC)[C@@H](C)CC)C(C)C)C(C)C
In experiment [1], B5 returned an EC50 [nM] (cAMP) of 0.29 nM. Besides, the “Emax (% I)” value with CRF1R receptor amounted to 8%.

B6: SEQ ID NO 154 (peptide)
peptide: [NMeI]VLSLD[dV]PIKLK([γGlu-C16 diacid])KILLEQEKQKAQREQAETN[Api]QILAQV-NH2
modifications: N-terminus assumed
SMILES: CC[C@H](C)[C@H](NC)C(=O)N[C@H](C(=O)N[C@@H](CC(C)C)C(=O)N[C@@H](CO)C(=O)N[C@@H](CC(C)C)C(=O)N[C@@H](CC(=O)O)C(=O)N[C@@H](C(=O)N1CCC[C@H]1C(=O)N[C@H](C(=O)N[C@@H](CCCCN)C(=O)N[C@@H](CC(C)C)C(=O)N[C@@H](CCCCNC(=O)CC[C@H](NC(=O)CCCCCCCCCCCCCCC(=O)O)C(=O)O)C(=O)N[C@@H](CCCCN)C(=O)N[C@H](C(=O)N[C@@H](CC(C)C)C(=O)N[C@@H](CC(C)C)C(=O)N[C@@H](CCC(=O)O)C(=O)N[C@@H](CCC(N)=O)C(=O)N[C@@H](CCC(=O)O)C(=O)N[C@@H](CCCCN)C(=O)N[C@@H](CCC(N)=O)C(=O)N[C@@H](CCCCN)C(=O)N[C@@H](C)C(=O)N[C@@H](CCC(N)=O)C(=O)N[C@@H](CCCNC(=N)N)C(=O)N[C@@H](CCC(=O)O)C(=O)N[C@@H](CCC(N)=O)C(=O)N[C@@H](C)C(=O)N[C@@H](CCC(=O)O)C(=O)N[C@H](C(=O)N[C@@H](CC(N)=O)C(=O)NC1(C(=O)N[C@@H](CCC(N)=O)C(=O)N[C@H](C(=O)N[C@@H](CC(C)C)C(=O)N[C@@H](C)C(=O)N[C@@H](CCC(N)=O)C(=O)N[C@H](C(N)=O)C(C)C)[C@@H](C)CC)CCNCC1)[C@@H](C)O)[C@@H](C)CC)[C@@H](C)CC)C(C)C)C(C)C
B6 showed an EC50 [nM] (cAMP) in experiment [1] of 0.52 nM. Further, the “Emax (% I)” value in the experiment with CRF1R receptor was 24%.
